The target in experiment [1] is T1, full-length nidogen-1 (murine, UniProt P10493 29-1245).
T1 construct: For photo-cross-linking the protein was made in Leu- and Met-depleted medium with photo-Met and photo-Leu; 13-25% of all leucines and methionines were partially replaced; also called entactin; source: HEK 293 EBNA cells, purified (Nickel-NTA Superflow); not shown: (His)6, N-terminal, kept
T1 sequence (looked up): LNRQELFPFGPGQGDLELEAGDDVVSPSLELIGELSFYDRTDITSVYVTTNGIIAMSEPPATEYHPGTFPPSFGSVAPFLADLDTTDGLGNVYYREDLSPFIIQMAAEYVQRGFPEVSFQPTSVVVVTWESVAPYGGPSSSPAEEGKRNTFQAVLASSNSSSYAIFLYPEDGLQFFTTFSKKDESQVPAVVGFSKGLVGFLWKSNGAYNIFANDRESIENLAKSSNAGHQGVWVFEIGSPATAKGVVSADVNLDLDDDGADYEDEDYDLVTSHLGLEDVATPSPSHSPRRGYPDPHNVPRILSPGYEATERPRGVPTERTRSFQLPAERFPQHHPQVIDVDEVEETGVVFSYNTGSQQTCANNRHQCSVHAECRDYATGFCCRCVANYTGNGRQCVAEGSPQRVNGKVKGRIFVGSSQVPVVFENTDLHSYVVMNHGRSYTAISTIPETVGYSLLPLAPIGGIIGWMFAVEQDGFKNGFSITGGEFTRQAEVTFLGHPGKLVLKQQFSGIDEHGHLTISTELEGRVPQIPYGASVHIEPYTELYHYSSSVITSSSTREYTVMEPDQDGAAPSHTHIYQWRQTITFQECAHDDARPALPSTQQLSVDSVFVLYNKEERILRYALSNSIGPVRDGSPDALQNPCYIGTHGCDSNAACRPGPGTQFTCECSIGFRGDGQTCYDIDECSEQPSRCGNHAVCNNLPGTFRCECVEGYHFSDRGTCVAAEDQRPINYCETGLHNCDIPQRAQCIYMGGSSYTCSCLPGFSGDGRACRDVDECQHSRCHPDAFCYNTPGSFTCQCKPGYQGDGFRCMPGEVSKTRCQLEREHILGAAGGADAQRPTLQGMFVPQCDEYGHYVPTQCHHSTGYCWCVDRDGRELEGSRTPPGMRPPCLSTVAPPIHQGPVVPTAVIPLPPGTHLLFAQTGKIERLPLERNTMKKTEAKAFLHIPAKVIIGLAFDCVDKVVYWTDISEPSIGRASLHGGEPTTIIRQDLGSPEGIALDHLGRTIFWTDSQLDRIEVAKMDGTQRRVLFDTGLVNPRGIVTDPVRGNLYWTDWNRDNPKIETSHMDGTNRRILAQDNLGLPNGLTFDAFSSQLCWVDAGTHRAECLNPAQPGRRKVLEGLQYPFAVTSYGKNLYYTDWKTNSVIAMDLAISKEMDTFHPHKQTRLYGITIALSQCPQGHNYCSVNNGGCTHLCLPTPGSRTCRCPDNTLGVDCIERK
In words: SPR; nidogen-1 immobilised by amine coupling on a CM5 chip; laminin variants as mobile analytes; single-cycle kinetics, 25°C, 20 mM HEPES, 100 mM NaCl, 0.05% Tween 20, pH 7.5; 1:1 binding model; apparent Kd. (In general: Surface plasmon resonance follows binding to a sensor surface in real time, without labels.)

Experiment [2] has as its target T1, full-length nidogen-1. In words: ELISA; laminin fragments coated at 10 µg/ml in TBS overnight at 4°C; nidogen-1 0.03 nM to 234 nM in TBS-T/1% BSA, 1 h at room temperature; detected by anti-(His)6 antibody; apparent Kd. Conditions: both partners purified. Background: ELISA stands for enzyme-linked immunosorbent assay.
For experiment [3], the target named is laminin γ1 LEb2–4 N836D (murine). Described as above.
The target in experiment [4] is laminin γ1 short arm (murine). Described as above.

Consider “laminin γ1 short arm (domain or fragment)”, for which the Kd in the experiment with full-length nidogen-1 [1] amounted to 12 nM.

B1: laminin γ1 LEb2–4 (domain or fragment, murine)
chain: QPCPCPGGSSCAIVPKTKEVVCTHCPTGTAGKRCELCDDGYFGDPLGSNGPVRLCRPCQCNDNIDPNAVGNCNRLTGECLKCIYNTAGFYCDRCKEGFFGNPLAPNPADKCKACACNPYGTVQQQSSCNPVTGQCQCLPHVSGRDCGTCDPGYYNLQSGQGCER
notes: For photo-cross-linking made with photo-Met and photo-Leu partially incorporated; the limits of LEb2–4 may be marked there; also called laminin γ1 LEb2–4 wild type; LEb2–4 fragment; source: HEK 293 EBNA cells, purified (Strep-Tactin sepharose)
For the molecule B1, the Kd in the experiment with full-length nidogen-1 [2] is 1.4 nM.

B2: laminin γ1 short arm N836D (domain or fragment)
chain: AMDECADEGGRPQRCMPEFVNAAFNVTVVATNTCGTPPEEYCVQTGVTGVTKSCHLCDAGQQHLQHGAAFLTDYNNQADTTWWQSQTMLAGVQYPNSINLTLHLGKAFDITYVRLKFHTSRPESFAIYKRTREDGPWIPYQYYSGSCENTYSKANRGFIRTGGDEQQALCTDEFSDISPLTGGNVAFSTLEGRPSAYNFDNSPVLQEWVTATDIRVTLNRLNTFGDEVFNEPKVLKSYYYAISDFAVGGRCKCNGHASECVKNEFDKLMCNCKHNTYGVDCEKCLPFFNDRPWRRATAESASESLPCDCNGRSQECYFDPELYRSTGHGGHCTNCRDNTDGAKCERCRENFFRLGNTEACSPCHCSPVGSLSTQCDSYGRCSCKPGVMGDKCDRCQPGFHSLTEAGCRPCSCDLRGSTDECNVETGRCVCKDNVEGFNCERCKPGFFNLESSNPKGCTPCFCFGHSSVCTNAVGYSVYDISSTFQIDEDGWRVEQRDGSEASLEWSSDRQDIAVISDSYFPRYFIAPVKFLGNQVLSYGQNLSFSFRVDRRDTRLSAEDLVLEGAGLRVSVPLIAQGNSYPSETTVKYIFRLHEATDYPWRPALSPFEFQKLLNNLTSIKIRGTYSERTAGYLDDVTLQSARPGPGVPATWVESCTCPVGYGGQFCETCLPGYRRETPSLGPYSPCVLCTCNGHSETCDPETGVCDCRDNTAGPHCEKCSDGYYGDSTLGTSSDCQPCPCPGGSSCAIVPKTKEVVCTHCPTGTAGKRCELCDDGYFGDPLGSNGPVRLCRPCQCNDNIDPDAVGNCNRLTGECLKCIYNTAGFYCDRCKEGFFGNPLAPNPADKCKACACNPYGTVQQQSSCNPVTGQCQCLPHVSGRDCGTCDPGYYNLQSGQGCERCDCHALGSTNGQCDIRTGQCECQPGITGQHCERCETNHFGFGPEGCKPCDCHHEGSL
modifications: Secreted from HEK293 EBNA cells, so disulfide-bonded LE modules and likely N-glycans. Double Strep tag II omitted. Paper numbering (Asn-836) is one higher than UniProt; classical Asn-802 + 33-residue
For B2, the Kd in the experiment with full-length nidogen-1 [2] worked out at 45 nM.

B3: full-length nidogen-1 (natural protein)
chain: LNRQELFPFGPGQGDLELEAGDDVVSPSLELIGELSFYDRTDITSVYVTTNGIIAMSEPPATEYHPGTFPPSFGSVAPFLADLDTTDGLGNVYYREDLSPFIIQMAAEYVQRGFPEVSFQPTSVVVVTWESVAPYGGPSSSPAEEGKRNTFQAVLASSNSSSYAIFLYPEDGLQFFTTFSKKDESQVPAVVGFSKGLVGFLWKSNGAYNIFANDRESIENLAKSSNAGHQGVWVFEIGSPATAKGVVSADVNLDLDDDGADYEDEDYDLVTSHLGLEDVATPSPSHSPRRGYPDPHNVPRILSPGYEATERPRGVPTERTRSFQLPAERFPQHHPQVIDVDEVEETGVVFSYNTGSQQTCANNRHQCSVHAECRDYATGFCCRCVANYTGNGRQCVAEGSPQRVNGKVKGRIFVGSSQVPVVFENTDLHSYVVMNHGRSYTAISTIPETVGYSLLPLAPIGGIIGWMFAVEQDGFKNGFSITGGEFTRQAEVTFLGHPGKLVLKQQFSGIDEHGHLTISTELEGRVPQIPYGASVHIEPYTELYHYSSSVITSSSTREYTVMEPDQDGAAPSHTHIYQWRQTITFQECAHDDARPALPSTQQLSVDSVFVLYNKEERILRYALSNSIGPVRDGSPDALQNPCYIGTHGCDSNAACRPGPGTQFTCECSIGFRGDGQTCYDIDECSEQPSRCGNHAVCNNLPGTFRCECVEGYHFSDRGTCVAAEDQRPINYCETGLHNCDIPQRAQCIYMGGSSYTCSCLPGFSGDGRACRDVDECQHSRCHPDAFCYNTPGSFTCQCKPGYQGDGFRCMPGEVSKTRCQLEREHILGAAGGADAQRPTLQGMFVPQCDEYGHYVPTQCHHSTGYCWCVDRDGRELEGSRTPPGMRPPCLSTVAPPIHQGPVVPTAVIPLPPGTHLLFAQTGKIERLPLERNTMKKTEAKAFLHIPAKVIIGLAFDCVDKVVYWTDISEPSIGRASLHGGEPTTIIRQDLGSPEGIALDHLGRTIFWTDSQLDRIEVAKMDGTQRRVLFDTGLVNPRGIVTDPVRGNLYWTDWNRDNPKIETSHMDGTNRRILAQDNLGLPNGLTFDAFSSQLCWVDAGTHRAECLNPAQPGRRKVLEGLQYPFAVTSYGKNLYYTDWKTNSVIAMDLAISKEMDTFHPHKQTRLYGITIALSQCPQGHNYCSVNNGGCTHLCLPTPGSRTCRCPDNTLGVDCIERK
Regarding B3, the Kd was found to be 34 nM in experiment [3] and 1.1 nM in experiment [4].

Source of the values: paper PMC4227867, “Analysis of Nidogen-1/Laminin γ1 Interaction by Cross-Linking, Mass Spectrometry, and Computational Modeling Reveals Multiple Binding Modes” (PLoS ONE, 2014).
